tested on: N,N-dimethylcasein; experiment: Chemostability: residual Tgase activity after 24 hour incubation at 20-30 °C, normalized to wild-type; type: biochemical; conditions: improvement relative to wild-type mature Tgase (SEQ ID NO: 2); residual activity after 24 h at 20-30 °C in cell-free extract
Procedure: Table 5 depicts variants of Streptomyces mobaraensis Tgase and improvement to stability relative to wild-type mature Tgase (SEQ ID NO. 2) as determined in Example 3. Numbering of amino acid positions is in reference to the mature S. mobaraensis Tgase sequence depicted in SEQ ID NO. 2. A “+” indicates an improvement between 1.2 and 2-fold. A “++” indicates an improvement greater than 2-fold.
To evaluate chemostability, Tgase samples in cell-free extract were assayed for activity, using the assay described in Example 4B, immediately after expression and again following a 24 hour incubation at 20-30° C. Mature Tgase variant residual activity was normalized to the residual activity of the wild-type and results are depicted in Table 5.
Protein functionalization by Tgase variants was determined by the fluorogenic labeling of casein using monodansylcadaverine (e.g., a commercially available kit such as the Transglutaminase Fluorogenic Activity Assay Kit, T036, Zedira, Germany). Tgase activity was monitored by measuring fluorescence (excitation wavelength 332 nm; emission wavelength 500 nm) using a BioTek Synergy H1 microplate reader. Transglutaminase-catalyzed covalent coupling (crosslinking) of monodansylcadaverine with N,N-dimethylcasein produces a product that causes a shift in intensity and wavelength of fluorescence of the dansyl group now linked to the casein. The relative transglutaminase activity is shown by increase of fluorescence intensity over time. Enzyme variant loading was optimized based on expression levels, ensuring enzyme was the rate limiting factor. Briefly, cell-free reactions (set up as described in Example 2A) were first diluted 10-fold using phosphate buffer, pH 7.4, and a 5 microliter aliquot was analyzed.

Molecule | Stability
S17: Tgase variant S2P Q50S Q74A K91H Q124N K151R K152R relative to SEQ ID NO: 2 (protein, UniProt P81453 77-407, looked up, variant S2P Q50S Q74A K91H Q124N K151R K152R) Protein-glutamine …: DPDDRVTPPAEPLDRMPDPYRPSYGRAETVVNNYIRKWQQVYSHRDGRKSQMTEEQREWLSYGCVGVTWVNSGAYPTNRLAFASFDEDRFHNELKNGRPRSGETRAEFEGRVAKESFDEEKGFNRAREVASVMNRALENAHDESAYLDNLRRELANGNDALRNEDARSPFYSALRNTPSFKERNGGNHDPSRMKAVIYSKHFWSGQDRSSSADKRKYGDPDAFRPAPGTGLVDMSRDRNIPRSPTSPGEGFVNFDYGWFGAQTEADADKTVWTHGNHYHAPNGSLGAMHVYESKFRNWSEGYSDFDRGAYVITFIPKSWNTAPDKVKQGWP | + (an improvement between 1.2 and 2-fold)
S2: Tgase variant S2P Q74V relative to SEQ ID NO: 2 (protein, UniProt P81453 77-407, looked up, variant S2P Q74V) Protein-glutamine …: DPDDRVTPPAEPLDRMPDPYRPSYGRAETVVNNYIRKWQQVYSHRDGRKQQMTEEQREWLSYGCVGVTWVNSGVYPTNRLAFASFDEDRFKNELKNGRPRSGETRAEFEGRVAKESFDEEKGFQRAREVASVMNRALENAHDESAYLDNLKKELANGNDALRNEDARSPFYSALRNTPSFKERNGGNHDPSRMKAVIYSKHFWSGQDRSSSADKRKYGDPDAFRPAPGTGLVDMSRDRNIPRSPTSPGEGFVNFDYGWFGAQTEADADKTVWTHGNHYHAPNGSLGAMHVYESKFRNWSEGYSDFDRGAYVITFIPKSWNTAPDKVKQGWP | ++ (an improvement greater than 2-fold)
S1: Tgase variant S2P Q50H relative to SEQ ID NO: 2 (protein, UniProt P81453 77-407, looked up, variant S2P Q50H) Protein-glutamine …: DPDDRVTPPAEPLDRMPDPYRPSYGRAETVVNNYIRKWQQVYSHRDGRKHQMTEEQREWLSYGCVGVTWVNSGQYPTNRLAFASFDEDRFKNELKNGRPRSGETRAEFEGRVAKESFDEEKGFQRAREVASVMNRALENAHDESAYLDNLKKELANGNDALRNEDARSPFYSALRNTPSFKERNGGNHDPSRMKAVIYSKHFWSGQDRSSSADKRKYGDPDAFRPAPGTGLVDMSRDRNIPRSPTSPGEGFVNFDYGWFGAQTEADADKTVWTHGNHYHAPNGSLGAMHVYESKFRNWSEGYSDFDRGAYVITFIPKSWNTAPDKVKQGWP | ++ (an improvement greater than 2-fold)
S4: Tgase variant S2P Q51P relative to SEQ ID NO: 2 (protein, UniProt P81453 77-407, looked up, variant S2P Q51P) Protein-glutamine …: DPDDRVTPPAEPLDRMPDPYRPSYGRAETVVNNYIRKWQQVYSHRDGRKQPMTEEQREWLSYGCVGVTWVNSGQYPTNRLAFASFDEDRFKNELKNGRPRSGETRAEFEGRVAKESFDEEKGFQRAREVASVMNRALENAHDESAYLDNLKKELANGNDALRNEDARSPFYSALRNTPSFKERNGGNHDPSRMKAVIYSKHFWSGQDRSSSADKRKYGDPDAFRPAPGTGLVDMSRDRNIPRSPTSPGEGFVNFDYGWFGAQTEADADKTVWTHGNHYHAPNGSLGAMHVYESKFRNWSEGYSDFDRGAYVITFIPKSWNTAPDKVKQGWP | + (an improvement between 1.2 and 2-fold)
S19: Tgase variant S2P K49H Q50A Q74C Q124N K151R K152R relative to SEQ ID NO: 2 (protein, UniProt P81453 77-407, looked up, variant S2P K49H Q50A Q74C Q124N K151R K152R) Protein-glutamine …: DPDDRVTPPAEPLDRMPDPYRPSYGRAETVVNNYIRKWQQVYSHRDGRHAQMTEEQREWLSYGCVGVTWVNSGCYPTNRLAFASFDEDRFKNELKNGRPRSGETRAEFEGRVAKESFDEEKGFNRAREVASVMNRALENAHDESAYLDNLRRELANGNDALRNEDARSPFYSALRNTPSFKERNGGNHDPSRMKAVIYSKHFWSGQDRSSSADKRKYGDPDAFRPAPGTGLVDMSRDRNIPRSPTSPGEGFVNFDYGWFGAQTEADADKTVWTHGNHYHAPNGSLGAMHVYESKFRNWSEGYSDFDRGAYVITFIPKSWNTAPDKVKQGWP | + (an improvement between 1.2 and 2-fold)
S21: Tgase variant S2P Q50T Q51A Q74M K95E Q124L K151R K152R relative to SEQ ID NO: 2 (protein, UniProt P81453 77-407, looked up, variant S2P Q50T Q51A Q74M K95E Q124L K151R K152R) Protein-glutamine …: DPDDRVTPPAEPLDRMPDPYRPSYGRAETVVNNYIRKWQQVYSHRDGRKTAMTEEQREWLSYGCVGVTWVNSGMYPTNRLAFASFDEDRFKNELENGRPRSGETRAEFEGRVAKESFDEEKGFLRAREVASVMNRALENAHDESAYLDNLRRELANGNDALRNEDARSPFYSALRNTPSFKERNGGNHDPSRMKAVIYSKHFWSGQDRSSSADKRKYGDPDAFRPAPGTGLVDMSRDRNIPRSPTSPGEGFVNFDYGWFGAQTEADADKTVWTHGNHYHAPNGSLGAMHVYESKFRNWSEGYSDFDRGAYVITFIPKSWNTAPDKVKQGWP | + (an improvement between 1.2 and 2-fold)
S20: Tgase variant S2P Q51A Q74T K95I Q124L K151R K152R relative to SEQ ID NO: 2 (protein, UniProt P81453 77-407, looked up, variant S2P Q51A Q74T K95I Q124L K151R K152R) Protein-glutamine …: DPDDRVTPPAEPLDRMPDPYRPSYGRAETVVNNYIRKWQQVYSHRDGRKQAMTEEQREWLSYGCVGVTWVNSGTYPTNRLAFASFDEDRFKNELINGRPRSGETRAEFEGRVAKESFDEEKGFLRAREVASVMNRALENAHDESAYLDNLRRELANGNDALRNEDARSPFYSALRNTPSFKERNGGNHDPSRMKAVIYSKHFWSGQDRSSSADKRKYGDPDAFRPAPGTGLVDMSRDRNIPRSPTSPGEGFVNFDYGWFGAQTEADADKTVWTHGNHYHAPNGSLGAMHVYESKFRNWSEGYSDFDRGAYVITFIPKSWNTAPDKVKQGWP | + (an improvement between 1.2 and 2-fold)
S3: Tgase variant S2P Q50A relative to SEQ ID NO: 2 (protein, UniProt P81453 77-407, looked up, variant S2P Q50A) Protein-glutamine …: DPDDRVTPPAEPLDRMPDPYRPSYGRAETVVNNYIRKWQQVYSHRDGRKAQMTEEQREWLSYGCVGVTWVNSGQYPTNRLAFASFDEDRFKNELKNGRPRSGETRAEFEGRVAKESFDEEKGFQRAREVASVMNRALENAHDESAYLDNLKKELANGNDALRNEDARSPFYSALRNTPSFKERNGGNHDPSRMKAVIYSKHFWSGQDRSSSADKRKYGDPDAFRPAPGTGLVDMSRDRNIPRSPTSPGEGFVNFDYGWFGAQTEADADKTVWTHGNHYHAPNGSLGAMHVYESKFRNWSEGYSDFDRGAYVITFIPKSWNTAPDKVKQGWP | ++ (an improvement greater than 2-fold)
S18: Tgase variant S2P K49H Q50A Q74C Q124L K151R K152R relative to SEQ ID NO: 2 (protein, UniProt P81453 77-407, looked up, variant S2P K49H Q50A Q74C Q124L K151R K152R) Protein-glutamine …: DPDDRVTPPAEPLDRMPDPYRPSYGRAETVVNNYIRKWQQVYSHRDGRHAQMTEEQREWLSYGCVGVTWVNSGCYPTNRLAFASFDEDRFKNELKNGRPRSGETRAEFEGRVAKESFDEEKGFLRAREVASVMNRALENAHDESAYLDNLRRELANGNDALRNEDARSPFYSALRNTPSFKERNGGNHDPSRMKAVIYSKHFWSGQDRSSSADKRKYGDPDAFRPAPGTGLVDMSRDRNIPRSPTSPGEGFVNFDYGWFGAQTEADADKTVWTHGNHYHAPNGSLGAMHVYESKFRNWSEGYSDFDRGAYVITFIPKSWNTAPDKVKQGWP | + (an improvement between 1.2 and 2-fold)
